In this assay the target is FcRn β2-microglobulin complex (UniProt P55899). Nature of the assay: BLI. (In general: Biolayer interferometry detects binding as a change in optical thickness at a sensor tip.)
Chain of UniProt P55899 (P55899 24-365, chain 1 of 2): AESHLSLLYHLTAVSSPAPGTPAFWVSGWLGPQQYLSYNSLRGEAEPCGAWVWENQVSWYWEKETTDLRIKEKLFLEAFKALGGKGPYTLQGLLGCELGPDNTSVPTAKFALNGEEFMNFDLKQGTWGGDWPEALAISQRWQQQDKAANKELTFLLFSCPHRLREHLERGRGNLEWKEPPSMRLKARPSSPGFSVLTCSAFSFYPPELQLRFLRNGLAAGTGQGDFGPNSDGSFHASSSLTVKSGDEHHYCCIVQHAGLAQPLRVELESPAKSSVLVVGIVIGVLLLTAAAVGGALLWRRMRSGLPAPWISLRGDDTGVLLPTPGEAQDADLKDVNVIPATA
Chain of UniProt P55899 (P61769 21-119, chain 2 of 2, further chain): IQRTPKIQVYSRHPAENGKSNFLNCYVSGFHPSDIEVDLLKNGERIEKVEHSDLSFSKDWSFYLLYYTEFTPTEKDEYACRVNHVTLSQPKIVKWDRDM

By Kd is commonly meant a measure of binding affinity in units of concentration. Lower therefore signals a tighter complex. Consider “single-chain IgG atezolizumab (scAtezo) (antibody)”, for which the Kd came out at 6.2 nM.

The values above are taken from PMC12647727.
